Test results from patent publication US20130040894A1, “INHIBITION OR ACTIVATION OF SERINE/THREONINE ULK3 KINASE ACTIVITY” (TALLINN UNIVERSITY OF TECHNOLOGY, priority 2009, published 2013).

Tested on: GLI-dependent firefly luciferase activity in Shh-LIGHT2 cells
Experiment: GLI-dependent luciferase assay in Shh-L2 cells
Format: cell-based, mouse
Details: for enhancement of transcriptional activity of overexpressed GLI1: cotransfected with GLI1, Shh-L2 cells; for enhancement of transcriptional activity of overexpressed GLI2: cotransfected with GLI2, Shh-L2 cells; for stimulation of GLI-dependent luciferase activity: kinase construct alone, Shh-L2 cells, normalized with β-galactosidase
Method: Cells were transfected by the expression constructs or respective empty vectors using Polyethylenimine transfection agent (PEI) (Inbio) and as described in [28]. We used 0.25 μg of cDNA per 1 cm^2 of plate surface area for transfections. After 3 h of transfection HEK293, NIH3T3 and Cos1 cells were propagated in the normal growth medium for 48 h. Prior the further analysis the cells were washed twice with PBS. Post-transfectional Shh-L2 cells were grown in the normal growth medium for 24 h and for additional 24 h in the Light medium containing 0.25% FBS, washed once with PBS, lysed in Passive Lysis Buffer (Promega, Madison Wis., USA) (70 ul per well of 24-well plate format) and subjected to luciferase assay.
Luciferase assay was performed as previously described. Briefly, firefly luciferase activity of 12 μl of the Shh-L2 cells lysate was measured using Luciferase Assay Kit (Promega) and galactosidase activity was quantified using Galacto-LightPlus kit (Tropix, Bedford Mass., USA) according to the manufacturer's instructions. Chemiluminicence was measured using Ascent FL Fluoroscan (Thermo Electron Corporation, Waltham Mass., USA) according to the manufacturer's instructions.
We cotransfected the constructs together with GLI-expressing plasmids (or respective empty vector) into Shh-L2 cells and assessed their effect on GLI-dependent firefly luciferase activity. The obtained data was normalized with β-galactosidase values. […] It was able to stimulate the luciferase activity 3.8 times and enhanced the transcriptional activity of over expressed GLI1 and GLI2 approximately 2 and 3.2 times, respectively. The potency of STK36 in the assay was much lower.
In order to examine if the kinase activity of ULK3 is required for the luciferase reporter activation we tested the supposed kinase-deficient variants of ULK3, ULK3(K44R) and ULK3(K139R) in the same assay. […] We also tested the effect of ULK3 and the mutants on the luciferase reporter when the SHH pathway was activated by cotransfection with pShhN (plasmid expressing biologically active part of SHH).

Row | Molecule | enhancement of transcriptional activity of overexpressed GLI1 | enhancement of transcriptional activity of overexpressed GLI2 | stimulation of GLI-dependent luciferase activity
1 | STK36: human serine/threonine kinase STK36, mammalian orthologue of dFu, expressed from STK36pcDNA3.1 (protein, UniProt Q9NRP7 1-1315, looked up) Serine/threonine-protein …: MEKYHVLEMIGEGSFGRVYKGRRKYSAQVVALKFIPKLGRSEKELRNLQREIEIMRGLRHPNIVHMLDSFETDKEVVVVTDYAEGELFQILEDDGKLPEDQVQAIAAQLVSALYYLHSHRILHRDMKPQNILLAKGGGIKLCDFGFARAMSTNTMVLTSIKGTPLYMSPELVEERPYDHTADLWSVGCILYELAVGTPPFYATSIFQLVSLILKDPVRWPSTISPCFKNFLQGLLTKDPRQRLSWPDLLYHPFIAGHVTIITEPAGPDLGTPFTSRLPPELQVLKDEQAHRLAPKGNQSRILTQAYKRMAEEAMQKKHQNTGPALEQEDKTSKVAPGTAPLPRLGATPQESSLLAGILASELKSSWAKSGTGEVPSAPRENRTTPDCERAFPEERPEVLGQRSTDVVDLENEEPDSDNEWQHLLETTEPVPIQLKAPLTLLCNPDFCQRIQSQLHEAGGQILKGILEGASHILPAFRVLSSLLSSCSDSVALYSFCREAGLPGLLLSLLRHSQESNSLQQQSWYGTFLQDLMAVIQAYFACTFNLERSQTSDSLQVFQEAANLFLDLLGKLLAQPDDSEQTLRRDSLMCFTVLCEAMDGNSRAISKAFYSSLLTTQQVVLDGLLHGLTVPQLPVHTPQGAPQVSQPLREQSEDIPGAISSALAAICTAPVGLPDCWDAKEQVCWHLANQLTEDSSQLRPSLISGLQHPILCLHLLKVLYSCCLVSEGLCRLLGQEPLALESLFMLIQGKVKVVDWEESTEVTLYFLSLLVFRLQNLPCGMEKLGSDVATLFTHSHVVSLVSAAACLLGQLGQQGVTFDLQPMEWMAAATHALSAPAEVRLTPPGSCGFYDGLLILLLQLLTEQGKASLIRDMSSSEMWTVLWHRFSMVLRLPEEASAQEGELSLSSPPSPEPDWTLISPQGMAALLSLAMATFTQEPQLCLSCLSQHGSILMSILKHLLCPSFLNQLRQAPHGSEFLPVVVLSVCQLLCFPFALDMDADLLIGVLADLRDSEVAAHLLQVCCYHLPLMQVELPISLLTRLALMDPTSLNQFVNTVSASPRTIVSFLSVALLSDQPLLTSDLLSLLAHTARVLSPSHLSFIQELLAGSDESYRPLRSLLGHPENSVRAHTYRLLGHLLQHSMALRGALQSQSGLLSLLLLGLGDKDPVVRCSASFAVGNAAYQAGPLGPALAAAVPSMTQLLGDPQAGIRRNVASALGNLGPEGLGEELLQCEVPQRLLEMACGDPQPNVKEAALIALRSLQQEPGIHQVLVSLGASEKLSLLSLGNQSLPHSSPRPASAKHCRKLIHLLRPAHSM | no effect | 1.6 times | failed to activate
2 | ULK1: unc-51-like kinase 1, homologue of ULK3, overexpressed in Shh-L2 cells (protein, UniProt O75385 1-1050, looked up) Serine/threonine-protein …: MEPGRGGTETVGKFEFSRKDLIGHGAFAVVFKGRHREKHDLEVAVKCINKKNLAKSQTLLGKEIKILKELKHENIVALYDFQEMANSVYLVMEYCNGGDLADYLHAMRTLSEDTIRLFLQQIAGAMRLLHSKGIIHRDLKPQNILLSNPAGRRANPNSIRVKIADFGFARYLQSNMMAATLCGSPMYMAPEVIMSQHYDGKADLWSIGTIVYQCLTGKAPFQASSPQDLRLFYEKNKTLVPTIPRETSAPLRQLLLALLQRNHKDRMDFDEFFHHPFLDASPSVRKSPPVPVPSYPSSGSGSSSSSSSTSHLASPPSLGEMQQLQKTLASPADTAGFLHSSRDSGGSKDSSCDTDDFVMVPAQFPGDLVAEAPSAKPPPDSLMCSGSSLVASAGLESHGRTPSPSPPCSSSPSPSGRAGPFSSSRCGASVPIPVPTQVQNYQRIERNLQSPTQFQTPRSSAIRRSGSTSPLGFARASPSPPAHAEHGGVLARKMSLGGGRPYTPSPQVGTIPERPGWSGTPSPQGAEMRGGRSPRPGSSAPEHSPRTSGLGCRLHSAPNLSDLHVVRPKLPKPPTDPLGAVFSPPQASPPQPSHGLQSCRNLRGSPKLPDFLQRNPLPPILGSPTKAVPSFDFPKTPSSQNLLALLARQGVVMTPPRNRTLPDLSEVGPFHGQPLGPGLRPGEDPKGPFGRSFSTSRLTDLLLKAAFGTQAPDPGSTESLQEKPMEIAPSAGFGGSLHPGARAGGTSSPSPVVFTVGSPPSGSTPPQGPRTRMFSAGPTGSASSSARHLVPGPCSEAPAPELPAPGHGCSFADPITANLEGAVTFEAPDLPEETLMEQEHTEILRGLRFTLLFVQHVLEIAALKGSASEAAGGPEYQLQESVVADQISLLSREWGFAEQLVLYLKVAELLSSGLQSAIDQIRAGKLCLSSTVKQVVRRLNELYKASVVSCQGLSLRLQRFFLDKQRLLDRIHSITAERLIFSHAVQMVQSAALDEMFQHREGCVPRYHKALLLLEGLQHMLSDQADIENVTKCKLCIERRLSALLTGICA | no effect | no effect | 3.4 times
